Data published in article PMC8399836.

Biological target: individual G6PD protein (g6pd region of the fused G6PD::6PGL enzyme from Giardia lamblia) (Giardia lamblia)
Test: SEC; size exclusion chromatography (gel filtration) of the purified individual G6PD protein; one peak with G6PD activity; column and buffer not told in the text shown

- stoichiometry N: 2
Substance: individual G6PD protein (g6pd region of the fused G6PD::6PGL enzyme from Giardia lamblia) (domain or fragment)
